Test results from patent publication US20240117030A1 (Pfizer, published 2024).
Numbering of substitutions follows the chain as printed.

T1: recombinant human IL-4 (human, UniProt P05112 25-153)
T1 sequence (looked up): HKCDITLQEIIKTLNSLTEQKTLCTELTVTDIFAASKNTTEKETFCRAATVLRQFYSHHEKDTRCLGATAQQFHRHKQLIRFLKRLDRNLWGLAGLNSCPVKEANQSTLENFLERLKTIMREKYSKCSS

B1: IL413TSLP-0001 (other)
heavy: EVTLRESGPALVKPTQTLTLTCTFSGFSLSNFGEGLSWIRQPPGKGLEWLAHIYWDDDKRYNPSLKSRLTISKDTSRNQVVLTMTNMDPVDTATYYCARRETVFYWYFDVWGQGTTVTVSSASTKGPSVFPEAPSSKSTSGGTAALGCLVKDYFPEPVTVSWNSGALTSGVHTFPAVLQSSGLYSLGSVVTVPSSSLGTQTYICNVNHKPSNTKVDKKVEPKSCDKTHTCPPCPAPEAAGAPSVFLFPPKPKDTLMISRTPEVTCVVVDVSHEDPEVKFNWYVDGVEVHNAKTKPREEQYNSTYRVVSVLTVLHQDWLNGKEYKCKVSNKALPAPIEKTISKAKGQPREPQVYTLPPCREEMTKNQVSLSCAVKGFYPSDIAVEWESNGQPENNYKTTPPVLDSDGSFFLVSKLTVDKSRWQQGNVFSCSVMHEALHNHYTQKSLSLSPGK
chain 1: QMQLVESGGGVVQPGRSLRLSCAASGFTFRTYGMHWVRQAPGKGLEWVAVIWYDGSNKHYADSVKGRFTITRDNSKNTLNLQMNSLRAEDTAVYYCARAPQWELVHEAFDIWGQGTMVTVSSGQPKAAPSVTLFPPSSEELQANKATLVCLISDFYPGAVTVAWKADSSPVKAGVETTTPSKQSNNKYAASSYLSLTPEQWKSHRSYSCQVTHEGSTVEKTVAPTECSGGGGSEVQLVESGGGLVQPGGSLRLSCAASGFTFSSYAMSWVRQAPGKGLEWVASISSGDTTYYPDSVKGRFTISRDNAKNSLYLQMNSLRAEDTAVYYCARNEGYYFGLTLWGQGTLVTVSSASTKGPSVFPKAPSSKSTSGGTAALGCLVKDYFPEPVTVSWNSGALTSGVHTFPAVLQSSGLYSLSSSVTVPSSSLGTQTYICNVNHKPSNTKVDKKVEPKSCDKTHTCPPCPAPEAAGAPSVFLFPPKPKDTLMISRTPEVTCVVVDVSHEDPEVKFNWYVDGVEVHNAKTKPREEQYNSTYRVVSVLTVLHQDWLNGKEYKCKVSNKALPAPIEKTISKAKGQPREPQVCTLPPSREEMTKNQVSLWCLVKGFYPSDIAVEWESNGQPENNYKTTPPVLDSDGSFFLYSKLTVDKSRWQQGNVFSCSVMHEALHNHYTQKSLSLSPGK
light 1: DIQMTQSPSSLSASVGDRVTITCKASQSVDEDGDSYMNWYQQKPGKAPKLLIYAASNLESGVPSRFSGSGSGTDFTLTISSLQPEDFATYYCQQSNEDPPTFGGGTKVEIKRTVAAPSVFIFPPSDEQLKSGTASVSCLLNNFYPREAKVQWKVDNALQSGNSQESVTEQDSKDSTYSLKSTLTLSKADYEKHKVYACEVTHQGLSSPVTKSFNRGEC
light 2: B1 light 1 with Q27E, E31H, D32F, D34W, Y36L, M37V, N38H, A54R, P100W, K180D
chain 2: SYVLTQPPSVSVAPGQTARITCGGNNLGSKSVHWYQQKPGQAPVLVVYDDSDRPSWIPERFSGSNSGNTATLTISRGEAGDEADYYCQVWDSSSDHVVFGGGTKLTVLASTKGPSVFPLAPSSKSTSGGTAALGCLVKDYFPEPVTVSWNSGALTSGVHTFPAVLQSSGLYSLSSVVTVPSSSLGTQTYICNVNHKPSNTKVDKKVEPKSC
B2: IL413TSLP-0002 (other)
heavy: EVQLVESGGGLVQPGGSLRLSCAASGFTFSSYAMSWVRQAPGKGLEWVASISSGDTTYYPDSVKGRFTISRDNAKNSLYLQMNSLRAEDTAVYYCARNEGYYFGLTLWGQGTLVTVSSASTKGPSVFPKAPSSKSTSGGTAALGCLVKDYFPEPVTVSWNSGALTSGVHTFPAVLQSSGLYSLSSSVTVPSSSLGTQTYICNVNHKPSNTKVDKKVEPKSCDKTHTCPPCPAPEAAGAPSVFLFPPKPKDTLMISRTPEVTCVVVDVSHEDPEVKFNWYVDGVEVHNAKTKPREEQYNSTYRVVSVLTVLHQDWLNGKEYKCKVSNKALPAPIEKTISKAKGQPREPQVCTLPPSREEMTKNQVSLWCLVKGFYPSDIAVEWESNGQPENNYKTTPPVLDSDGSFFLYSKLTVDKSRWQQGNVFSCSVMHEALHNHYTQKSLSLSPGK
chain 1: QMQLVESGGGVVQPGRSLRLSCAASGFTFRTYGMHWVRQAPGKGLEWVAVIWYDGSNKHYADSVKGRFTITRDNSKNTLNLQMNSLRAEDTAVYYCARAPQWELVHEAFDIWGQGTMVTVSSGQPKAAPSVTLFPPSSEELQANKATLVCLISDFYPGAVTVAWKADSSPVKAGVETTTPSKQSNNKYAASSYLSLTPEQWKSHRSYSCQVTHEGSTVEKTVAPTECSGGGGSEVTLRESGPALVKPTQTLTLTCTFSGFSLSNFGEGLSWIRQPPGKGLEWLAHIYWDDDKRYNPSLKSRLTISKDTSRNQVVLTMTNMDPVDTATYYCARRETVFYWYFDVWGQGTTVTVSSASTKGPSVFPEAPSSKSTSGGTAALGCLVKDYFPEPVTVSWNSGALTSGVHTFPAVLQSSGLYSLGSVVTVPSSSLGTQTYICNVNHKPSNTKVDKKVEPKSCDKTHTCPPCPAPEAAGAPSVFLFPPKPKDTLMISRTPEVTCVVVDVSHEDPEVKFNWYVDGVEVHNAKTKPREEQYNSTYRVVSVLTVLHQDWLNGKEYKCKVSNKALPAPIEKTISKAKGQPREPQVYTLPPCREEMTKNQVSLSCAVKGFYPSDIAVEWESNGQPENNYKTTPPVLDSDGSFFLVSKLTVDKSRWQQGNVFSCSVMHEALHNHYTQKSLSLSPGK
light 1: B1 light 1 with Q27E, E31H, D32F, D34W, Y36L, M37V, N38H, A54R, P100W, K180D
light 2: B1 light 1
chain 2: B1 chain 2
B3: IL413TSLP-0007 (other)
heavy: B1 heavy
chain 1: SYVLTQPPSVSVAPGQTARITCGGNNLGSKSVHWYQQKPGQAPVLVVYDDSDRPSWIPERFSGSNSGNTATLTISRGEAGDEADYYCQVWDSSSDHVVFGGGTKLTVLASTKGPSVFPLAPSSKSTSGGTAALGCLVKDYFPEPVTVSWNSGALTSGVHTFPAVLQSSGLYSLSSVVTVPSSSLGTQTYICNVNHKPSNTKVDKKVEPKSCGGGGSEVQLVESGGGLVQPGGSLRLSCAASGFTFSSYAMSWVRQAPGKGLEWVASISSGDTTYYPDSVKGRFTISRDNAKNSLYLQMNSLRAEDTAVYYCARNEGYYFGLTLWGQGTLVTVSSASTKGPSVFPKAPSSKSTSGGTAALGCLVKDYFPEPVTVSWNSGALTSGVHTFPAVLQSSGLYSLSSSVTVPSSSLGTQTYICNVNHKPSNTKVDKKVEPKSCDKTHTCPPCPAPEAAGAPSVFLFPPKPKDTLMISRTPEVTCVVVDVSHEDPEVKFNWYVDGVEVHNAKTKPREEQYNSTYRVVSVLTVLHQDWLNGKEYKCKVSNKALPAPIEKTISKAKGQPREPQVCTLPPSREEMTKNQVSLWCLVKGFYPSDIAVEWESNGQPENNYKTTPPVLDSDGSFFLYSKLTVDKSRWQQGNVFSCSVMHEALHNHYTQKSLSLSPGK
light 1: B1 light 1
light 2: B1 light 1 with Q27E, E31H, D32F, D34W, Y36L, M37V, N38H, A54R, P100W, K180D
chain 2: QMQLVESGGGVVQPGRSLRLSCAASGFTFRTYGMHWVRQAPGKGLEWVAVIWYDGSNKHYADSVKGRFTITRDNSKNTLNLQMNSLRAEDTAVYYCARAPQWELVHEAFDIWGQGTMVTVSSGQPKAAPSVTLFPPSSEELQANKATLVCLISDFYPGAVTVAWKADSSPVKAGVETTTPSKQSNNKYAASSYLSLTPEQWKSHRSYSCQVTHEGSTVEKTVAPTECS
B4: IL413TSLP-0008 (other)
heavy: B2 heavy
chain 1: SYVLTQPPSVSVAPGQTARITCGGNNLGSKSVHWYQQKPGQAPVLVVYDDSDRPSWIPERFSGSNSGNTATLTISRGEAGDEADYYCQVWDSSSDHVVFGGGTKLTVLASTKGPSVFPLAPSSKSTSGGTAALGCLVKDYFPEPVTVSWNSGALTSGVHTFPAVLQSSGLYSLSSVVTVPSSSLGTQTYICNVNHKPSNTKVDKKVEPKSCGGGGSEVTLRESGPALVKPTQTLTLTCTFSGFSLSNFGEGLSWIRQPPGKGLEWLAHIYWDDDKRYNPSLKSRLTISKDTSRNQVVLTMTNMDPVDTATYYCARRETVFYWYFDVWGQGTTVTVSSASTKGPSVFPEAPSSKSTSGGTAALGCLVKDYFPEPVTVSWNSGALTSGVHTFPAVLQSSGLYSLGSVVTVPSSSLGTQTYICNVNHKPSNTKVDKKVEPKSCDKTHTCPPCPAPEAAGAPSVFLFPPKPKDTLMISRTPEVTCVVVDVSHEDPEVKFNWYVDGVEVHNAKTKPREEQYNSTYRVVSVLTVLHQDWLNGKEYKCKVSNKALPAPIEKTISKAKGQPREPQVYTLPPCREEMTKNQVSLSCAVKGFYPSDIAVEWESNGQPENNYKTTPPVLDSDGSFFLVSKLTVDKSRWQQGNVFSCSVMHEALHNHYTQKSLSLSPGK
light 1: B1 light 1 with Q27E, E31H, D32F, D34W, Y36L, M37V, N38H, A54R, P100W, K180D
light 2: B1 light 1
chain 2: B3 chain 2
B5: IL13-1307 (antibody, human IgG1, kappa, V domains shown)
VH: EVQLVESGGGLVQPGGSLRLSCAASGFTFSSYAMSWVRQAPGKGLEWVASISSGDTTYYPDSVKGRFTISRDNAKNSLYLQMNSLRAEDTAVYYCARLDGYYFGFPYWGQGTLVTVSS
VL: DIQMTQSPSSLSASVGDRVTITCKASESVDHSGSSLMHWYQQKPGKAPKLLIYRASNLESGVPSRFSGSGSGTDFTLTISSLQPEDFATYYCQQSNEDPWTFGGGTKVEIKR

Tests used:
Assay in all cases: cell-based or functional assay
recombinant human IL-4 = target: T1, recombinant human IL-4
recombinant human IL-13 [1] = target: recombinant human IL-13 (human, UniProt P35225 35-146)
[2] = target: recombinant human TSLP (glycosylated long form) (human, UniProt Q969D9 29-159)
recombinant human IL-13 [3] = target: recombinant human IL-13 (human, UniProt P35225 35-146); remark: listed apart in the source

| a-hIL-4 bioassay IC50, pM) (recombinant human IL-4) | a-hIL-13 bioassay (IC50, pM) (recombinant human IL-13 [1]) | a-TSLP TARC bioassay (IC50; pM) [2] | IC50 (median), Monocyte CD23 expression (recombinant human IL-13 [3]) | IC50 (median), STAT6 phosphorylation in HT-29 cells (recombinant human IL-13 [3]) | Binder |
| --- | --- | --- | --- | --- | --- |
| 7.15 pM | 47 pM | 12.6 pM | – | – | B1 |
| 8.59 pM | 10.6 pM | 16.4 pM | – | – | B2 |
| 7.09 pM | 46.8 pM | 11.7 pM | – | – | B3 |
| 9.07 pM | 10.6 pM | 17.7 pM | – | – | B4 |
| – | – | – | 306 pM | 140 pM | B5 |
